Article PMC8834707, “Probing the Dynamics of Streptococcus pyogenes Cas9 Endonuclease Bound to the sgRNA Complex Using Hydrogen-Deuterium Exchange Mass Spectrometry”

Biological target: Cas9 (SpCas9) (Streptococcus pyogenes, UniProt Q99ZW2 1-1368)
Experiment: HDX-MS; protein:RNA 1:10 molar ratio; sgRNA without DNA; 9 peptides with reduced and 21 with increased deuterium uptake on binding; HDX buffer, pH and temperature not given in the material (section 3.4 text absent); complex at 1:10 Cas9:sgRNA formed immediately before exchange, D2O incubation 1-480 min
Conditions: protein: recombinant; tags: His-tag removed with TEV protease; single-strand sgRNA with repeat-antirepeat and stem-loops

Cas9 (SpCas9), sequence (Q99ZW2 whole entry): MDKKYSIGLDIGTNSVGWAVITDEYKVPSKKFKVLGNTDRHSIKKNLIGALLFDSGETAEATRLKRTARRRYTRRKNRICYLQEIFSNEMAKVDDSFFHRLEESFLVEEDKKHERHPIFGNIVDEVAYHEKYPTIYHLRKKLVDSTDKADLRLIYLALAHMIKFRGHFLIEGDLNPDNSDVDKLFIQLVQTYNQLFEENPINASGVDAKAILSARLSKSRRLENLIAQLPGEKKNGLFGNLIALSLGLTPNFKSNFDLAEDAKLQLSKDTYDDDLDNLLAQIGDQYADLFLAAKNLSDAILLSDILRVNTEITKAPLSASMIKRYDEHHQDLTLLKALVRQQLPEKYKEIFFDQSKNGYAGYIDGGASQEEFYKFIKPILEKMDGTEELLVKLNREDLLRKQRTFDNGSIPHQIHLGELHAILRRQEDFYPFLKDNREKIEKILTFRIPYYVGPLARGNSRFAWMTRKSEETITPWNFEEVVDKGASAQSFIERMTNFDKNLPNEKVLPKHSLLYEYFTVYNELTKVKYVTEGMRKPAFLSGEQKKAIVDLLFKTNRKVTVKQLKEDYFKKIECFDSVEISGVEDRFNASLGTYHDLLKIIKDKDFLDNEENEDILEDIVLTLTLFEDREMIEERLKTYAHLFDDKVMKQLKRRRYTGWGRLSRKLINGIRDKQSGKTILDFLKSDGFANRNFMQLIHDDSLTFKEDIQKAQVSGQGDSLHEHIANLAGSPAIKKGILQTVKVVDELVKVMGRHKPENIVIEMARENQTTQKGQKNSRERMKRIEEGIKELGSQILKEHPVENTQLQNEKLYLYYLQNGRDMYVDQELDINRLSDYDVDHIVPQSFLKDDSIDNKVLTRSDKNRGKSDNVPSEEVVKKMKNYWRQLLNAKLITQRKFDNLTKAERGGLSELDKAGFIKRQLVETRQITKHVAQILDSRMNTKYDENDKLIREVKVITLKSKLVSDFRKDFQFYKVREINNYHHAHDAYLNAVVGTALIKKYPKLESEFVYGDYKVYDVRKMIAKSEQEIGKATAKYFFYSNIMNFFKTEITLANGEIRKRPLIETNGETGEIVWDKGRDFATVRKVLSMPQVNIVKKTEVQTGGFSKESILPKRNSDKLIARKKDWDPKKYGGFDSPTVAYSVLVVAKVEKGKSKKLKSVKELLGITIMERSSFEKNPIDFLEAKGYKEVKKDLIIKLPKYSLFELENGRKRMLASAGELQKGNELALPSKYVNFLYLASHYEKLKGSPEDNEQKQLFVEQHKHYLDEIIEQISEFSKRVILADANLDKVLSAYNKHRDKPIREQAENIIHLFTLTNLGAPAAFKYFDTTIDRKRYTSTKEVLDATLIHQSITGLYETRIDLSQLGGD

B1: sgRNA (103 nt) (structured_RNA)
RNA: GGUUGGACAUGCUCGACAUUCGUUUUAGAGCUAGAAAUAGCAAGUUAAAAUAAGGCUAGUCCGUUAUCAACUUGAAAAAGUGGCACCGAGUCGGUGCUUUUUU
Q: Does B1 bind?
A: Result: binds
